The text below walks through data of the DeepSol protein solubility set.

The data set is described as follows: soluble on expression in E. coli; label from the status in PepcDB or PDB records.
Regarding “MMSQQFNVAIFGATGAVGETMLEVLQEREFPVDELFLLASERSEGKTYRFNGKTVRVQNVEEFDWSQVHIALFSAGGELSAKWAPIAAEAGVVVIDNTSHFRYDYDIPLVVPEVNPEAIAEFRNRNIIANPNCSTIQMLVALKPIYDAVGIERINVTTYQSVSGAGKAGIDELAGQTAKLLNGYPAETNTFSQQIAFNCIPQIDQFMDNGYTKEEMKMVWETQKIFNDPSIMVNPTCVRVPVFYGHAEAVHVETRAPIDAEQVMDMLEQTDGIELFRGADFPTQVRDAGGKDHVLVGRVRNDISHHSGINLWVVADNVRKGAATNAVQIAELLVRDYF”, the “soluble on expression in E. coli” value is listed as “not soluble”. “MMSRVTCSHMSFQTAIRPAESVDIADIRRVARATWHTVYDDILGAETVEEHLKEGYTPPLLEQMIELDEVGLFVSTADDDVVAYMSCGMTDATGFGDLDLYVHPDYWGEGIGTELLHRGEQHLHDLSVRKIRDEVLAENEVGNAFYRAHFEKVGQRTAKVGGQEHPVNVYERRL”: the “soluble on expression in E. coli” value is given as “not soluble”. For “MMTDEERIELQQNNPLHGLKLETLLQELVDFYGWEILDTAMRLNCFNTNPSVASSVKYLKKTEWAREKLENFYLYRFKRMPRASNLEYDKPPRARTFPHGLEPKEPMELTVDSILKSQAKAASAHKARTSNRGGNYRRLEHHHHHH”, the “soluble on expression in E. coli” value is recorded as “soluble”.

As for “MNCESLLTALDVSTLLSTLSSPEKEHRRKRRRGEVANPSNTLDALVARKADDQPFEKRYLSEQEAIEGPDDEIEMKKMELDPDVSTRTCSTCGYQGKWVSEMIRHKRVHTSERPFKCRYCSRTSKWKADLIRHVAKTHGIRVVSKYSRSKVFDATNSSMDSSCSSDSDRCIISEKRTVFYRCQLCSFEDERVSVLNSHVSHLHNTSPCVCRCGAKFEDVQGALAHSNGPCSHVDMIYNVMPTYEKASPLSPCRSESSSDSGIQTDPEEEASIITSSLPTPQLGSSPLLLSPTLPVTPSFLPDIQSALLSLQPNPLMSLYLASLLQSSLLNSPTIPTSFPQIIPTTILTPSQQDEMVDVEM”, the “soluble on expression in E. coli” value is given as “not soluble”.

Consider “MNDALHIGLPPFLVQANNEPRVLAAPEARMGYVLELVRANIAADGGPFAAAVFERDSGLLIAAGTNRVVPGRCSAAHAEILALSLAQAKLDTHDLSADGLPACELVTSAEPCVMCFGAVIWSGVRSLVCAARSDDVEAIGFDEGPRPENWMGGLEARGITVTTGLLRDAACALLREYNACNGVIYNARCGVHK”, for which the “soluble on expression in E. coli” value was “soluble”.

As to “MNDDKDVVIDQIYYISTDPSATTYPTTFSVSLVDNSVAGRPFFYVVGKSTMRVDRNTTLRVEEDSKLVEKYNETYGKKYLPFPEGTYSFSTNEVTINQGDNFSSDTIFISFSNWDKLSKIDKYLLPVSLKAVDDKGAVSMDRNLIYFIADFSTTNTGYNKPAAWKPLDRTDWDVSFSYAYGYDEAQFGGRLAVDGDVSTTWFTWGVVSAGECWWATTLPAPTHLTGFSLTRQTTFGSSYNVREAKVKVKKEGDTEWTEAGLFRFGSFKGNDPQYAVFIPAVENVKEFRIDIVSPADFTGFAELDLYQLEHHHHHH”, the “soluble on expression in E. coli” value is recorded as “not soluble”. Take “MNDEIKVSVLIITYNQARFIKKAIESALEQKTKFKYEIIVMDDCSSDSTIKIAGKYAEKYTDIIKVYSNNKNLGITKNYKEGFKKCRGEYIAVLEGDDYWNNKQKLQIQSNFLDRHKNFSAVFNRYIIYNAINNSKATQAWRSNTSYETITIEQLTRGNVIGNFSTCMYRKSCVDKVKESLYDMLVYDWMFNMVIAEQKPIAYLPQICSVYRIHSRGTWMGNSVKNRLALTIKLIDVYNAFFGFKYNSNFKLLKKNVYKQLINLEHHHHHH”: the “soluble on expression in E. coli” value is given as “soluble”. Turning to “MNDFYVTLPSSVKNAQFENTSSRYVTRLPQVLHLEKDEYSVAVTDIIYPYSFVNLGRPLNYWIHFKNREPINVTFPAAQYDDLPHVVNSLNGVQKPRMKRGAPLILENEQVKRPKSDEPLSERDVIINKIRELEAKAKKDEEERIAREKEEKNKQREKHLATHKKAEEFAKKVQTDKDEQREKHLDTHKKAEQNAQDNQKYHDEERKKHIETQKKAEENEEKRRAKEKADRDAHVARHKQAEALEKKKREQEEKQKNEDRERATQKERREHIERHRQAEARAKALEKEKHEQEEKQKKENLERAEKERHDHIERQRQAEARAKALEQEKQEEKQKNEDRERATQKERREHLERHRQAEARAKALEKEKHERLQQEAKDKEDERARDKARKDAKAREEAKSREDVKAEKVAIDPKQVVNIPGKVYASQEAKKIIEKVNELEKQERDKIVSKVRESEAIEKEAVRASSEYHDVALKIFQKPNDRNIYDELKLSFERIRSRIKVSHFENSSDYLQFGEKDGRVSIDFLDSNILFEEFEKSCAYFLGFHDTIVRESSLAPSKIDYFGNVSTIYLYCDIVDPIIVGDSKNSLLSVIPCKGKYGEMIHHTIPHPRYLPIMNSTIDSIKIELLSEFAEPINFNWGSTVIVLHFKKI”, the “soluble on expression in E. coli” value is “not soluble”.

As to “MNDGYKQNDIVNHEAYEELEVAEEQIIYCQEEYNDGPGTMVQVQEQTDVPCYVMEGTYFTPENIYAANQDHSVCHFCKEDLTNKRFYNHLFDHHGFTKQQCEMMKQQKRLGRPNPKRKSLHSCENCGMEFITKTGLTSHLKKDNSPCARVDEMAVGGSSVSNIVCPSYGCDKNVPTYLDLAIHVDTEHRDLSRATDSFRIRRVTFQDKAGFMKWKKQMEKSTNSEFFLRTSQKVSFAIRTMLYKCLFSNSRGQSKGRRCEQCPAFIKCCMRNHGQYEVVACFGHLGHEHPTETEIARQMRIEKYREIDALQVRESRMHNQHHMNVRPKQIIVDQYGHPTHPNDEMMILMPVGEEVVEEDAFTSVVVDDADDEIVGPRAQQETPALTRQVYIPTSNHHASSSHY”, the “soluble on expression in E. coli” value is listed as “not soluble”. For the sequence “MNDQEFFTVHHALTINVEPLAEHFTLPSHEIFEAEIPAPFVVASEFSQLEQLSDSARMELKNSDFKSVLQLLEAQNAKLNLLLTFMLSQQDDPQSRSATTRFGASQLTYLAKSPLQIGQKVRVKLFLEYPAAAIYCYASVMQCQQEPEHTLVTLKYDLLRDVDQDLLIKAALYQQQRLLRQRSLDREKPQA”, the “soluble on expression in E. coli” value is reported as “soluble”. Consider “MNDSILEPKHRGNVREIAAIDLGSNSFHMIVARIVNGSIQVLSRLKQKVKLAEGLDENAVLNQEAITRGVNCLALFAERLQGFPMENVNVVGTYTLRRAVNNDEFLRQAAKVFPYPINIISGQTEAKTIYAGVCHTQPEKGRKLVIDIGGGSTEMIIGDDFTPLMAESRHMGCVSFATQFFTDGIISPENFQRARQSAVNKIEDLGLEYRKLGWQSVLGSSGTIKTVAQVIATNLDPNGTITAERLNALIEQTLQAKHFTELNINGLNQDRVDVFVPGLAILSAVFDVFHIQQMRYSDGALREGVIYSLEKNFQVADIRASTALEHHHHHH”, for which the “soluble on expression in E. coli” value is reported as “not soluble”. As for “MNDVVLSCKNVSKKYTEFKTDIAILKDVNLEIKKGEKVAILGLSGSGKTTLLNVLGGLDKCSAGEVYLMGERFDNQSVNKRAKMRNKHLGFIYQLHHLLPEFTAIENVMIPLAITKKYTKKESIKLANEILKKVGLDHRADHKPAELSGGERQRVAIARALVTNPNCILADEPTGNLDSQRSESIFALMQQLSDDFGTSFVIVTHDEKLASRMNKIYRLVDGELELVINSN”, the “soluble on expression in E. coli” value is recorded as “not soluble”. Turning to “MNEFDRVRDYLTDLQDRICAAVEAIDGKARFAEDLWQRAEGGGGRTRILRDGAVFEQAGIGFSDVSGARLPPSASAHRPELAGATWRACGVSLVFHPHNPHIPTTHANVRYFRAERDGEMVAAWFGGGFDLTPFYPVDEDVMHWHRTAQALCAPFGEERYAAHKRWCDEYFFLRHRNETRGVGGLFFDDLGQDFERDFAYQRAVGDGFLDAYLPIVERRKDTPYGEAERAFQLYRRGRYVEFNLVYDRGTLFGLQSGGRAESILMSLPPQVRWEYGFQPQPGSAEARLADYLIPRDWLGLEHHHHHH”, the “soluble on expression in E. coli” value is reported as “soluble”. For “MNEKTINEQYAYIRTLLEEKRLKEALMQLESLLWQCPDWDLRTRLEQLQTSYKYMLEYMRQGANDPERWNVYRKLIADTWEIADRSRLLMLDNASSRYYHEVRRTPRPESLSAYTLKKLLHMLESFNDDLAVSGLLSDEKMDEVLKRHEETLKYMFLQTWTNSAWTPEEEEDAQSMLTSELLPVNDLCLFISAVTLSLMECFDLRKIMWLLDAYRHPDVNAGQRALVGVIFIFHIYKNRLSLYNDLVKRVDLMDEISPFKEDVARIYHQMLLCQETEKIDKKMREEIIPEMLKNVSSMRNMRFGFEENEDENDDKNPDWADAFEQSGLGDKLREMNELQLEGADVYMSTFAALKSYPFFREVQNWFYPFSKQQSDVIKQLKQEGNEKNTLLDLILQSGFFSNSDKYSLFFTIRQLPKAQQDMMLSQLGEQQVAELTEKSSAETMKKFNERPGTVSNQYLHDLYRFFKLSVRRHEFRDIFKEKLDLHHIPALSNVLYSEDILFPIADFYLKKERWNEAIEVYEEMETIGALQERGAEYYQKLGYALQKSKKYAEAIGAYLKADTLKPDNIWNNRHLAICYRLNRNYQAALSYYKKVEEATPEDTNVIFHIGSCLAELGQYEEAANYFFKLDFIESNCIKAWRGIGWCSFISRKYEQAMKYYEKIIEQKPLAIDYMNAGHVAWTMGDIQKAAALYGKSITANGNRERFLEMFRKDEEALLKQGIQEEDIPLMLDLL”, the “soluble on expression in E. coli” value is “not soluble”. For the sequence “MNEVKLSKRLEEVVREIPVGSTVADIGSDHAYLPCYTIINNIATKAVAGEVVDGPFRSAQATVAESGLQDKVDVRKGNGLAVIAPGEVDVITVAGMGGALIRDILESGKEKLEGVTRLILQPNIAAHHIREWFIENGWELIHEKIVKEDGKIYEILVGERGNVAAPYSENKQAELFMGPFLITEKSEAFVEKWEGELKNFQNILKQLERAADSEETKAKRGEVEAKMKMIGEVLS”, the “soluble on expression in E. coli” value is reported as “not soluble”. Turning to “MNFESTRRRLTEKQADTVDRLTRAAVEVLREEGFAGLTVRSVAGIAGVAPATAYTYFSSKEHLVAEVFWRRLAGSPQPADDGLDRTGRVVAVLRHIALLVADEPELAGAVTNALLGRDPDVEHLRARIGLEIRDRLATALGEGHDPDVLEALELLYAGGLVRAGMGYGSYAQFADRLETSAKLILE”, the “soluble on expression in E. coli” value was “not soluble”. Regarding “MNFGKSSWRTYEQGIQREWLLTNGIGGFASSTIIGSNTRRYHGLLVAALKPPVSRHLILSKIDECVTVDNESFNLFSYEVPGFIMHGYHHLERFEYDMLPKYIYRVKDVYVEKEICMVYGENTVVVVYHVINGTGRTNLRLTPLVNFRDYHFNSGRAYMSFERKFEKDVLTVRPSCYDIDIKLYSTDGKFTELDDTWFYNMDYAVERERGLASTEDHYIPGYYDIEIKPLEEKYITFVATVEKNVNHRDGLKIIEKEKKRLKKLASKAGYKDELAKKLVLAADKFIVHRESTNAKTVIAGYPWFTDWGRDTMISLAGLTLATRRFEDAKEILYTFSKYVKDGLIPNMFPDAGHEPPYNTVDAALWYFEAVNKYVNYTHDYKFIKENIYSGLKQIIEYYSKGTHFNIKADEDYLISAGDEHTQLTWMDAKVGDWVVTPRHGKAVEINALWYNALKIMSQLSKHFKEDAGLYDEMAEKVKKSFEEKFWNEEKKCLYDCLTPNYKDDKVRPNQILAVSLSYPVIEGEKAKSVVDIVFKELYTAYGLRSLSPKEKEYVGVYMGDQYRRDGAYHQGTVWTWPLGHFITAYLRVNNYSPEARKMALRFIEPFKDHLQDACLGSVSEIFDGNEPLIPRGCFAQAWSVAEILRAYVEDVMQLVQLKH”, the “soluble on expression in E. coli” value is given as “soluble”.

As for “MNFPVSDLTSYQELIEQQGLKSQTNIISLDKIIVDIILSEKTGFSRSQQVWCLIRQRIVDGCASVVDIDYLDMRLMPQLNRSIAENSIYDYLENQLHLSISHAFKEITIDNTSEQDKILIDIGKDHHVVCIRSKVYLNNGNQLQFTESRHKLEKFKFVYYAKRHH”, the “soluble on expression in E. coli” value is listed as “not soluble”. With “MNGRRWMVLAAVVGVSTLSACASQGHDSDETLPTYTPPAWMAEVRAQNEEYANAGVACLAAHGVEGTADNGTFGISYGPQSQGALTHMTDEEADALLTECSESLSLPDYVNNSADEEYDRVLDLRECVIAQGYDMPDAPSREVWTEQWERTRDAWVPYYHEMTLDPDGLERHKVTVEEMNRLQSICVPSTVGATTVSR”, the “soluble on expression in E. coli” value is “not soluble”.
